Patent publication US20230220093A1 (published 2023)

T1: cellular membrane CD40L expressed on D1.1 cells (CRL-10915) (UniProt P29965 1-261, limits assumed)
T1 construct: whole, on cells; also called mCD40L; cell membrane CD40L
T1 sequence (looked up): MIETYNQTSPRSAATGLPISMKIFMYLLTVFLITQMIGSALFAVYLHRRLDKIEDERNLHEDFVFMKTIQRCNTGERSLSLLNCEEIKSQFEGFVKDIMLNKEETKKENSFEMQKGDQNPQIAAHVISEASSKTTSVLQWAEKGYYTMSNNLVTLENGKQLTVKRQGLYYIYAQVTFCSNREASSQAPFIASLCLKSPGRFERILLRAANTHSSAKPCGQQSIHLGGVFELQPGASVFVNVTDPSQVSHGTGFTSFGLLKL

T2: recombinant human CD40L (rhCD40L-his) (human, UniProt P29965 113-261, limits assumed)
T2 construct: The construct is purified by IMAC and named rhCD40L-his; also called rhCD40L antigen; soluble CD40L
T2 sequence (looked up): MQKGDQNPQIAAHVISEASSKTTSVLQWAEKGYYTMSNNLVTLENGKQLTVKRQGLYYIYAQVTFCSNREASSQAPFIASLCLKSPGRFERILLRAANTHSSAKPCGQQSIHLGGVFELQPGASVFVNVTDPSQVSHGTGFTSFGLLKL


Tests used:
[1] = target: T1, cellular membrane CD40L expressed on …; assay: flow cytometry on D1.1 cells, anti-human kappa-FITC
[2] = target: T3, human serum albumin (HSA) (Sigma-Aldrich) (human, UniProt P02768 25-609); assay: BLI (Octet RED), HSA immobilised on AR2G biosensor
Text: (§1) The purified antibodies were continuously treated in a 1× kinetic buffer at pH 7.4 for two-fold dilution.

[3] = target: T3, human serum albumin (HSA) …; assay: BLI (Octet RED)
Experimental: (§2) The binding and dissociation kinetics were obtained using Octet QK software. Binding rate constants were calculated such that the observed binding curves are fitted to a 1:1 binding model.

[4] = target: T3, human serum albumin (HSA) …; assay: BLI (Octet RED), second run
Experimental: as §2

[5] = target: T3, human serum albumin (HSA) …; assay: BLI (Octet RED), average of two runs
Experimental: as §2

[6] = target: T3, human serum albumin (HSA) …; assay: BLI (Octet RED), HSA immobilised on AR2G biosensor, first run
Experimental: as §2

[7] = target: T4, recombinant human TNF-α protein (BioLegend) (human, UniProt P01375 77-233); assay: cell-based or functional assay
[8] = target: T2, recombinant human CD40L (rhCD40L-his); assay: ELISA, CD40L coated, anti-human Fd-HRP
Text: HRP-conjugated goat anti-human Fd antibodies were used as secondary antibodies.

[9] = target: T2, recombinant human CD40L (rhCD40L-his); assay: BLI (Octet RED), CD40L immobilised on AR2G biosensor
Text: as §1

[10] = target: T4, recombinant human TNF-α protein …; assay: BLI (Octet RED), TNF-α immobilised on AR2G biosensor
Text: as §1

T4 sequence (P01375 77-233 limits assumed): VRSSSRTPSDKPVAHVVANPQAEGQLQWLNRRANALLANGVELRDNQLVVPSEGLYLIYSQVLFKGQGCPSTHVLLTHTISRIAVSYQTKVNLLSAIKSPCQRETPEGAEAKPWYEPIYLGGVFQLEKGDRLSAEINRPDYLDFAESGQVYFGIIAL

binding result [1]	Kd [2] [nM]	koff [2] [s⁻¹]	kon [2] [M⁻¹ s⁻¹]	fold of KD against SL335-HSA KD [3] [fold]	Kd [4] [nM]	Kd [5] [nM]	koff [5] [s⁻¹]	kon [5] [M⁻¹ s⁻¹]	Kd [6] [nM]	IC50, HEK-Blue reporter (SEAP), soluble TNF-α 10 ng/ml (FIG. 22B) [7] [nM]	fold lower binding capacity against anti-human CD40L IgG1 (ruplizumab) [8] [fold]	Kd [9] [nM]	koff [9] [s⁻¹]	kon [9] [M⁻¹ s⁻¹]	Kd [10] [nM]	koff [10] [s⁻¹]	kon [10] [M⁻¹ s⁻¹]	Binder	IC50, inhibition of TNF-α mediated cytotoxicity, L929 mouse cells, HSA present (CCK-8) [7] [nM]
no binding	0.286	0.000288	1.01e+06	–	–	–	–	–	–	–	–	–	–	–	–	–	–	SL335 Fab (anti-HSA Fab) (Fab, V domains shown, also called anti-HSA Fab (SL335)) VH: QVQLVQSGGGPVKPGGSLRLSCAASGFMFRAYSMNWVRQAPGKGLEWVSSISSSGRYIHYADSVKGRFTISRDNAKNSLYLQMNSLRAEDTAVYYCARETVMAGKALDYWGQGTLVTVSS VL: DIVLTQSPGTLSLSPGETATLSCRASQSVGSNLAWYQQKPGQAPRLLIYGASTGATGVPARFSGSRSGTDFTLTITSLQPEDFATYYCQQYYSFLAKTFGQGTQLEIKR	–
–	–	–	–	~2.6	0.628	0.688	0.00056	804000	0.748	–	–	–	–	–	–	–	–	APB-A1, recombinant antibody (anti-CD40L scFv)2-anti-HSA Fab (bispecific antibody, also called (anti-hu5c8 scFv)2-SL335; (scFv)2-Fab) heavy: DIVLTQSPATLSVSPGERATISCRASQRVSSSTYSYMHWYQQKPGQPPKLLIKYASNLESGVPARFSGSGSGTDFTLTISSVEPEDFATYYCQHSWEIPPTFGGGTKLEIKRGGGGSGGGGSGGGGSQVQLVQSGAEVVKPGASVKLSCKASGYIFTSYYMYWVKQAPGQGLEWIGEINPSNGDTNFNEKFKSKATLTVDKSASTAYMELSSLRSEDTAVYYCTRSDGRNDMDSWGQGTLVTVSSGGGGSGGGGSGGGGSQVQLVQSGGGPVKPGGSLRLSCAASGFMFRAYSMNWVRQAPGKGLEWVSSISSSGRYIHYADSVKGRFTISRDNAKNSLYLQMNSLRAEDTAVYYCARETVMAGKALDYWGQGTLVTVSSASTKGPSVFPLAPSSKSTSEGTAALGCLVKDYFPEPVTVSWNSGALTSGVHTFPAVLQSSGLYSLSSVVTVPSSSLGTQTYICNVNHKPSNTKVDKKVEPKSS light: DIVLTQSPATLSVSPGERATISCRASQRVSSSTYSYMHWYQQKPGQPPKLLIKYASNLESGVPARFSGSGSGTDFTLTISSVEPEDFATYYCQHSWEIPPTFGGGTKLEIKRGGGGSGGGGSGGGGSQVQLVQSGAEVVKPGASVKLSCKASGYIFTSYYMYWVKQAPGQGLEWIGEINPSNGDTNFNEKFKSKATLTVDKSASTAYMELSSLRSEDTAVYYCTRSDGRNDMDSWGQGTLVTVSSGSTSGSGKPGSGEGSTKGDIVLTQSPGTLSLSPGETATLSCRASQSVGSNLAWYQQKPGQAPRLLIYGASTGATGVPARFSGSRSGTDFTLTITSLQPEDFATYYCQQYYSFLAKTFGQGTQLEIKRTVAAPSVFIFPPSDEQLKSGTASVVCLLNNFYPREAKVQWKVDNALQSGNSQESVTEQDSKDSTYSLSNTLTLSKADYEKHKVYACEVTHQGLSSPVTKSFNRGES	–
–	0.765	0.00042	549000	–	–	–	–	–	–	3.05	~1.5	0.192	0.000113	590000	0.164	3.82e-05	230000	APB-B1a, (anti-CD40L scFv)2-(anti-HSA Fab)-(anti-TNF-α Fv) (bispecific antibody, also called APB-1a; (scFv)2-Fab-Fv (certolizumab)) heavy: DIVLTQSPATLSVSPGERATISCRASQRVSSSTYSYMHWYQQKPGQPPKLLIKYASNLESGVPARFSGSGSGTDFTLTISSVEPEDFATYYCQHSWEIPPTFGQGTKLEIKRGGGGSGGGGSGGGGSQVQLVQSGAEVVKPGASVKLSCKASGYIFTSYYMYWVKQAPGQGLEWIGEINPSNGDTNFNEKFKSKATLTVDKSASTAYMELSSLRSEDTAVYYCTRSDGRNDMDSWGQGTLVTVSSGGGGSGGGGSGGGGSQVQLVQSGGGPVKPGGSLRLSCAASGFMFRAYSMNWVRQAPGKGLEWVSSISSSGRYIHYADSVKGRFTISRDNAKNSLYLQMNSLRAEDTAVYYCARETVMAGKALDYWGQGTLVTVSSASTKGPSVFPLAPSSKSTSEGTAALGCLVKDYFPEPVTVSWNSGALTSGVHTFPAVLQSSGLYSLSSVVTVPSSSLGTQTYICNVNHKPSNTKVDKKVEPKSSGGGGSGGGGSGGGGSEVQLVESGGGLVQPGGSLRLSCAASGYVFTDYGMNWVRQAPGKGLEWMGWINTYIGEPIYADSVKGRFTFSLDTSKSTAYLQMNSLRAEDTAVYYCARGYRSYAMDYWGQGTLVTVSS light: DIVLTQSPATLSVSPGERATISCRASQRVSSSTYSYMHWYQQKPGQPPKLLIKYASNLESGVPARFSGSGSGTDFTLTISSVEPEDFATYYCQHSWEIPPTFGQGTKLEIKRGGGGSGGGGSGGGGSQVQLVQSGAEVVKPGASVKLSCKASGYIFTSYYMYWVKQAPGQGLEWIGEINPSNGDTNFNEKFKSKATLTVDKSASTAYMELSSLRSEDTAVYYCTRSDGRNDMDSWGQGTLVTVSSGSTSGSGKPGSGEGSTKGDIVLTQSPGTLSLSPGETATLSCRASQSVGSNLAWYQQKPGQAPRLLIYGASTGATGVPARFSGSRSGTDFTLTITSLQPEDFATYYCQQYYSFLAKTFGQGTQLEIKRTVAAPSVFIFPPSDEQLKSGTASVVCLLNNFYPREAKVQWKVDNALQSGNSQESVTEQDSKDSTYSLSNTLTLSKADYEKHKVYACEVTHQGLSSPVTKSFNRGESGGGGSGGGGSGGGGSDIQMTQSPSSLSASVGDRVTITCKASQNVGTNVAWYQQKPGKAPKALIYSASFLYSGVPYRFSGSGSGTDFTLTISSLQPEDFATYYCQQYNIYPLTFGQGTKVEIKR	5.3
